Reference: article doi:10.1101/2025.02.13.638205, “Cryo-EM structure of endogenous Plasmodium falciparum Pfs230 and Pfs48/45 fertilization complex” (bioRxiv, 2025)

Tests used:
[1] = target: Pfs230, endogenous, in fixed NF54/iGP2 stage V gametocytes (Plasmodium falciparum (endogenous in …, UniProt P68874)); assay: immunostaining of cells or tissue; settings: one partner purified
[2] = target: recombinant Pfs230 D11D12 (D2446-T2818) (Plasmodium falciparum 3D7, UniProt P68874); assay: BLI; settings: both partners purified
recombinant Pfs230 D11D12 (D2446-T2818), sequence (P68874 2446-2818, one chain of several): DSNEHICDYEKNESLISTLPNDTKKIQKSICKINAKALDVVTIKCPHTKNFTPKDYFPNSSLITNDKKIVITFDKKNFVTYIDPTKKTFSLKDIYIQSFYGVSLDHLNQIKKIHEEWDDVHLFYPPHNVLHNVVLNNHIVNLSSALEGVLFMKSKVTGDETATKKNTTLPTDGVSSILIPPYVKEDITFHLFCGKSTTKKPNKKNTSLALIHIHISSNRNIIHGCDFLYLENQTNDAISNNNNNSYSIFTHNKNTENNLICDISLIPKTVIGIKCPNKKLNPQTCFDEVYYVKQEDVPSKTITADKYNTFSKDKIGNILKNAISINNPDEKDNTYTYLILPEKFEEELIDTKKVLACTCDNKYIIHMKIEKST

[3] = target: recombinant Pfs230 D1D2 (Plasmodium falciparum 3D7/NF54, UniProt P68874); assay: BLI; settings: both partners purified
[4] = target: recombinant Pfs230 D5D6 (T1281-G1549) (Plasmodium falciparum 3D7, UniProt P68874); assay: BLI; settings: both partners purified
recombinant Pfs230 D5D6 (T1281-G1549), sequence (P68874 1281-1549): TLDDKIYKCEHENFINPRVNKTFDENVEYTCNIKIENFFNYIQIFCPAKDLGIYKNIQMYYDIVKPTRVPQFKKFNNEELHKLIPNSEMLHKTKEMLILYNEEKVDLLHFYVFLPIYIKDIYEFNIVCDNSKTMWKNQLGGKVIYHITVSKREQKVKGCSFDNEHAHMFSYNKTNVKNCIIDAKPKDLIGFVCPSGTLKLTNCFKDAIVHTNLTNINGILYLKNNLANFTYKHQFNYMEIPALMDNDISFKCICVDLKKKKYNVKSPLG

[5] = target: T1, Pfs48/45, endogenous, from P. falciparum stage V gametocytes (Plasmodium falciparum NF54 (NF54/iGP2 …)); assay: pull-down; settings: one partner purified
T1 construct: Pfs48/45 of Plasmodium falciparum, three 6-cysteine domains (D1-D3), migrates at about 50 kDa; residues 28-428 fitted in the cryo-EM model; also called P48/45; source: endogenous, P. falciparum NF54/iGP2 Pfs230FL stage V gametocytes; co-purified with Pfs230 (StrepTactin XT, SEC) and in parasite lysate
T1 chain: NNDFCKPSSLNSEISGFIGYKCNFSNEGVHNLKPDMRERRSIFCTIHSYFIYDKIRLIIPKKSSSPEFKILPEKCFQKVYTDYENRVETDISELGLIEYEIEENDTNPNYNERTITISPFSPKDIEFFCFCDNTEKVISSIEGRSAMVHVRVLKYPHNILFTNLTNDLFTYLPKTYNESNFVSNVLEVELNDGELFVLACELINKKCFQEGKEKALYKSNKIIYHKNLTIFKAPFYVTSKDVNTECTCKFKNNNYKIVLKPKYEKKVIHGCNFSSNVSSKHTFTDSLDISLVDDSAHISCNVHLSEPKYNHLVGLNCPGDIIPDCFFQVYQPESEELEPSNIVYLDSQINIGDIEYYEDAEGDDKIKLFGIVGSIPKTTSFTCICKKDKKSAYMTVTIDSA

Pfs230, endogenous, in fixed NF54/iGP2 stage V gametocytes (Plasmodium falciparum, sequence (P68874 21-3135): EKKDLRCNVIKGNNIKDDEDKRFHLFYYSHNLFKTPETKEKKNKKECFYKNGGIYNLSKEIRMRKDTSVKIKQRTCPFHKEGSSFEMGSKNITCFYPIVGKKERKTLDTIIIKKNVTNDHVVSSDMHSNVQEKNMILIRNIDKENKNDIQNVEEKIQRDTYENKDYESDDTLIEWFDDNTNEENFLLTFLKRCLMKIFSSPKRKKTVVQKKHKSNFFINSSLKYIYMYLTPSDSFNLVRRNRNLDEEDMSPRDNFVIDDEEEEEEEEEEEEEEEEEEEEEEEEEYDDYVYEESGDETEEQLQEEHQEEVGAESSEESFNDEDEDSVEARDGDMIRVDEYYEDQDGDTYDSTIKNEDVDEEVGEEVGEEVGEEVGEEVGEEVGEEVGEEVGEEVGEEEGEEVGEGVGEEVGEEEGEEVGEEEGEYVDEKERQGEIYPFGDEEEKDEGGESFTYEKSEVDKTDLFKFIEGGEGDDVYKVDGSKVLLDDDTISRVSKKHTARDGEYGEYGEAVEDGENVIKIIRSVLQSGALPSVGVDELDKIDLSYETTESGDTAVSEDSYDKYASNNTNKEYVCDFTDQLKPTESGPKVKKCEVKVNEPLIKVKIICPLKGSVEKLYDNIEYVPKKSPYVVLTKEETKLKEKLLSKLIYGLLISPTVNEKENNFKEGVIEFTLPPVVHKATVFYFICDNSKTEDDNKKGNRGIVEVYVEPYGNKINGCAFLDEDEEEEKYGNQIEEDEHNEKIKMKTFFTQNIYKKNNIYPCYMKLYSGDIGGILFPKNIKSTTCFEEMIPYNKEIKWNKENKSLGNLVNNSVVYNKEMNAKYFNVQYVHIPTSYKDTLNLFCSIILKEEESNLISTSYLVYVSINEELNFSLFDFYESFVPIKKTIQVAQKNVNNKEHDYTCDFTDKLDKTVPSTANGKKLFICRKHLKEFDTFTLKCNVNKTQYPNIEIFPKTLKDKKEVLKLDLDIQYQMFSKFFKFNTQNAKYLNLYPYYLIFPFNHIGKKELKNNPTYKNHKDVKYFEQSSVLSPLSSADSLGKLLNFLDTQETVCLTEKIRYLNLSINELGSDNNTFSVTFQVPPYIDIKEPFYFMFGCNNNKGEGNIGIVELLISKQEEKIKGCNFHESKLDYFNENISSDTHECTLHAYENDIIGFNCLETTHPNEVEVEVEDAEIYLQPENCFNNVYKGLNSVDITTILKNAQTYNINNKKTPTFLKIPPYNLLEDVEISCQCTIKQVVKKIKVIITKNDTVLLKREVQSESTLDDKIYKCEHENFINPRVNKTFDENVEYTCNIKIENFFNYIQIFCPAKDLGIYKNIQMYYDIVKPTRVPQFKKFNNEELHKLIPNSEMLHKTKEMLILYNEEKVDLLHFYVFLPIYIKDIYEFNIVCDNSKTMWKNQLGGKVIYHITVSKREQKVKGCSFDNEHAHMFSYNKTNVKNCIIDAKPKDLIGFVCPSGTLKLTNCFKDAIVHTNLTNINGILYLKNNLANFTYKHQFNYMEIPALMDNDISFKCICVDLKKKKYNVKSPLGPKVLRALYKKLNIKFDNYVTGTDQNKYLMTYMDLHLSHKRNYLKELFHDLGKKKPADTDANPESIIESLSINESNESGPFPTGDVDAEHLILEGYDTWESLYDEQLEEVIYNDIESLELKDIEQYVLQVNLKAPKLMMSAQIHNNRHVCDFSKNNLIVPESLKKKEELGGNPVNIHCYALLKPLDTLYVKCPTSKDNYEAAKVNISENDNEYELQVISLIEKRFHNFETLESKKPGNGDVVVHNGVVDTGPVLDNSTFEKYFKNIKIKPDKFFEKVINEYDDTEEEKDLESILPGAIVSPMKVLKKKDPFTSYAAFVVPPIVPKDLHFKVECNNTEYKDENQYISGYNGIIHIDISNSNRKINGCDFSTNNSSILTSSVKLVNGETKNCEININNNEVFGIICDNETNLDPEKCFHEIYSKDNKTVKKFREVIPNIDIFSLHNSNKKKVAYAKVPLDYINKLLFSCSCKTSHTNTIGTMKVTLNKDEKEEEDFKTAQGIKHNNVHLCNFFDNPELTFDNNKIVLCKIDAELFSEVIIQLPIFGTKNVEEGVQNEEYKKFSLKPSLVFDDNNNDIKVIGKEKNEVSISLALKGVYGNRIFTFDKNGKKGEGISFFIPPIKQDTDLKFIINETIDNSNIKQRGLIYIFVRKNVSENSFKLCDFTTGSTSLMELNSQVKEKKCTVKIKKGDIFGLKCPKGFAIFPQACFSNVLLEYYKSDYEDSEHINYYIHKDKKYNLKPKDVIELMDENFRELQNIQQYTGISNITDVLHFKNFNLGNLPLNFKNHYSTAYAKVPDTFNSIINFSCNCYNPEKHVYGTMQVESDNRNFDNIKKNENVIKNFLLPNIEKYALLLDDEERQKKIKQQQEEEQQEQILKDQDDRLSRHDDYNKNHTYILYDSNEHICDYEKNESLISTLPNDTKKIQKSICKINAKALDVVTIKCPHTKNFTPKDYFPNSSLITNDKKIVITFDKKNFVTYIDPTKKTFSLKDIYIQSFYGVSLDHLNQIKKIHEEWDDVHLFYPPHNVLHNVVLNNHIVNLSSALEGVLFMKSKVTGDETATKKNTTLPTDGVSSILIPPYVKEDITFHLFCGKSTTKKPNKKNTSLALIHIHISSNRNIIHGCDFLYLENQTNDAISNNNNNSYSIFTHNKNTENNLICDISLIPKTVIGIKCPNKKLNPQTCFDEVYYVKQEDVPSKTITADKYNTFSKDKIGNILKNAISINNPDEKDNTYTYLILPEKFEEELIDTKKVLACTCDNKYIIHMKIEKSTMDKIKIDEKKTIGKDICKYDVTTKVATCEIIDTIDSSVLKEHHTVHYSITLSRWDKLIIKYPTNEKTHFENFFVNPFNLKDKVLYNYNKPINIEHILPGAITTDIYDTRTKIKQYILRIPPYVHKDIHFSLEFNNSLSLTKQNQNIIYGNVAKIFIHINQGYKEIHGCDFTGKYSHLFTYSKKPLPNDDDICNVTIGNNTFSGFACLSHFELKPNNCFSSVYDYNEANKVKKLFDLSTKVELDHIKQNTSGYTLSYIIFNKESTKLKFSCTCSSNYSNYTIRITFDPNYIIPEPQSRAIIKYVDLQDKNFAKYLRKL

B1: nanobody W2812 (VHH)
VHH: QVQLQESGGGLVQPGGSLRLSCAASGRTFSSYMMAWFRQSQGNERELVAGLTRSGVSAYYADSVKGRFTISRDNAKNTVYLQMNSLKPKDTAVYYCAAASTTYINHIYTNPSNYPHWGPGTQVTVSS
B1: binds [1]; no binding (tested: 100 nM) [2]; no binding (tested: 100 nM) [3]. B1: no binding (tested: 100 nM) [4].

B2: anti-Pfs48/45 monoclonal antibody TB31F (antibody, V domains shown)
VH: EVQLVQSGGGLVQPGGSLRLSCAASGFTFNNYWMSWVRQAPGKGLEWVSSISNIGGTIYYPDSVKGRFTISRDNSKNTLYLQMNSLRAEDTAVYYCTRDLRMSDYFDYWGQGTMVTVSS
VL: NFMLTQPHSVSESPGKTVTISCTRSTGNIGSNYVSWYQQRPGSSPTTVIYRDDQRPSGVPDRFSGSIDRSSNSASLTISGLKTEDEADYYCHSYSTGMYIFGGGTKLTVL
B2: binds [5].

B3: nanobody W2810 (VHH)
VHH: QVQLQESGGGLVQAGGSLRLSCAASGRTFSSYAMGWFHQAPGKEREFVASISWSGGSIRYADSVKGRFTVSRDNAKNTAYLQMNSLKPEDTGVYYCAAGPYSSDYGGFGSWGQGTQVTVSS
B3: binds [1]; no binding (tested: 100 nM) [2]; no binding (tested: 100 nM) [3]. B3: no binding (tested: 100 nM) [4].

B4: nanobody W2809 (VHH)
VHH: QVQLQESGGGLVQAGGSLRLSCAASEHTFRDYAMGWFRQAPGKEREFVAAISWSGSIKYYADSVKGRFTISRDNAKRTQYLQMSSLKPEDTAVYYCAARWPGGGMWYEPPYDYWGQGTQVTVSS
B4: no binding [2]; no binding [3]; no binding [4].
